Experimental data as given in paper PMC10772735, “Characterization of erythroferrone oligomerization and its impact on BMP antagonism” (The Journal of Biological Chemistry, 2023).

B1: N-terminally flag-tagged hERFE (residues 44–354), WT erythroferrone [human] / BMP6 [not stated] (parent)
chain 1: PPPGNELPRGPGESRAGPAARPPEPTAERAHSVDPRDAWMLFVRQSDKGVNGKKRSRGKAKKLKFGLPGPPGPPGPQGPPGPIIPPEALLKEFQLLLKGAVRQRERAEPEPCTCGPAGPVAASLAPVSATAGEDDDDVVGDVLALLAAPLAPGPRAPRVEAAFLCRLRRDALVERRALHELGVYYLPDAEGAFRRGPGLNLTSGQYRAPVAGFYALAATLHVALGEPPRRGPPRPRDHLRLLICIQSRCQRNASLEAIMGLESSSELFTISVNGVLYLQMGQWTSVFLDNASGCSLTVRSGSHFSAVLLGV
chain 2: SASSRRRQQSRNRSTQSQDVARVSSASDYNSSELKTACRKHELYVSFQDLGWQDWIIAPKGYAANYCDGECSFPLNAHMNATNHAIVQTLVHLMNPEYVPKPCCAPTKLNAISVLYFDDNSNVILKKYRNMVVRACGCH

Variants of: B1
Assay: SPR competition (BMP6 + ERFE over Alk3-Fc captured on protein A chip)
Conditions: curve maximum near the ~300 s dotted line, RU is residual BMP6 binding to Alk3-Fc (lower RU = more competition by ERFE), read off a plot

Row | response (with BMP6, 10 nM BMP6 + 80 nM W82A ERFE) [RU] | response (with BMP6, 10 nM BMP6 + 160 nM W82A ERFE) [RU] | response (with BMP6, 10 nM BMP6 + 80 nM F85A ERFE) [RU] | response (with BMP6, 10 nM BMP6 + 160 nM F85A ERFE) [RU] | Variant
1 | 12 | 10 |  |  | chain 1 PPPGNELPRGPGESRAGPAARPPEPTAERAHSVDPRDAAMLFVRQSDKGVNGKKRSRGKAKKLKFGLPGPPGPPGPQGPPGPIIPPEALLKEFQLLLKGAVRQRERAEPEPCTCGPAGPVAASLAPVSATAGEDDDDVVGDVLALLAAPLAPGPRAPRVEAAFLCRLRRDALVERRALHELGVYYLPDAEGAFRRGPGLNLTSGQYRAPVAGFYALAATLHVALGEPPRRGPPRPRDHLRLLICIQSRCQRNASLEAIMGLESSSELFTISVNGVLYLQMGQWTSVFLDNASGCSLTVRSGSHFSAVLLGV [chain 1 W39A]
2 |  |  | 12 | 11 | chain 1 PPPGNELPRGPGESRAGPAARPPEPTAERAHSVDPRDAWMLAVRQSDKGVNGKKRSRGKAKKLKFGLPGPPGPPGPQGPPGPIIPPEALLKEFQLLLKGAVRQRERAEPEPCTCGPAGPVAASLAPVSATAGEDDDDVVGDVLALLAAPLAPGPRAPRVEAAFLCRLRRDALVERRALHELGVYYLPDAEGAFRRGPGLNLTSGQYRAPVAGFYALAATLHVALGEPPRRGPPRPRDHLRLLICIQSRCQRNASLEAIMGLESSSELFTISVNGVLYLQMGQWTSVFLDNASGCSLTVRSGSHFSAVLLGV [chain 1 F42A]
